Experimental data published in US20260250411A1 (ALTRUBIO, published 2026).

T1: human PSGL-1 (extracellular domain) recombinant protein (SinoBiological, 13863-H08H) (human, UniProt Q14242 42-320)
T1 construct: extracellular domain; Bought protein; also called recombinant PSGL-1; hPSGL-1 extracellular domain antigen
T1 sequence (looked up): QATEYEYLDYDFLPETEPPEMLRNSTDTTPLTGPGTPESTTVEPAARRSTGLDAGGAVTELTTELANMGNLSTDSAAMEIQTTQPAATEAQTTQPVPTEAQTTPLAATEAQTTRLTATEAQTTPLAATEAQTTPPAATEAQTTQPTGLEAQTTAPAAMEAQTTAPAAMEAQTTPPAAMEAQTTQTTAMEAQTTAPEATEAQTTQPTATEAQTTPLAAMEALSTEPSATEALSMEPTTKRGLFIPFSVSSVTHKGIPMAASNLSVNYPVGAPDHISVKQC

T2: human PSGL-1 on cells (Sp2/0-hPSGL-1 transfectants; activated human primary T cells) (human, UniProt Q14242 42-412)
T2 sequence (looked up): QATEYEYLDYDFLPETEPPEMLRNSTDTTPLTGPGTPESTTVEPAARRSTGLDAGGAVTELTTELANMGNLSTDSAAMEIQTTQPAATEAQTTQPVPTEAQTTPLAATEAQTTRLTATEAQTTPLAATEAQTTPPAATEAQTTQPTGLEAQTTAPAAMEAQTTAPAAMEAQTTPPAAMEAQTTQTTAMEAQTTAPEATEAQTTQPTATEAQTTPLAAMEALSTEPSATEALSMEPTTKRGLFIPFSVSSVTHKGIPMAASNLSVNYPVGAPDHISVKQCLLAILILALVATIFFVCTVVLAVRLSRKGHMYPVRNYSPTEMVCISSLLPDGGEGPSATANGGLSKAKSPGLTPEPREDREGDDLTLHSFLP


Key:
[1] = molecular target: T1, human PSGL-1 (extracellular domain) …; experiment: ELISA, plate coated with recombinant PSGL-1 at lower density (0.03 pg/mL as printed), FIG. 3C
Description: (§1) 96-well NUNC-Immuno plates (Thermo Fisher, Cat #442404) were coated with 100 μL per well of 0.5, 0.05, or 0.03 pg/mL human PSGL-1 (extracellular domain) recombinant protein (SinoBiological, 13863-H08H) overnight at 4° C. Plates were then washed with Wash Buffer (1×PBS with 0.05% Tween 20, pH 7.4) and blocked with 0.5% (w/v) BSA-PBS for 60 min at room temperature on a plate shaker set to 300 rpm. After blocking, 100 μL of serial dilutions of 15A7H-IgM, 15A7H-IgG4, and controls at concentration range of 5000 pM-4.89 pM were added to the wells and incubated at room temperature for 1 hour. […] After 5 final washes using Wash Buffer, the plates were read out using TMB substrate (followed the instruction manual of BD OptEIA. Cat. 555214) by incubating the wells with […] each of freshly prepared TMB Working Solution for 5 min followed by the addition of sulfuric acid to stop the reaction. Finally, the data of absorbance at 450 nm (OD450 nm) were collected on an ELISA plate reader and analyzed with SoftMax using a 4-parameter logistic model.

[2] = molecular target: T2, human PSGL-1 on cells (Sp2/0-hPSGL-1 …); experiment: cell-based or functional assay
[3] = molecular target: T1, human PSGL-1 (extracellular domain) …; experiment: ELISA, plate coated with recombinant PSGL-1 at high density (0.5 µg/mL), FIG. 3A
Description: as §1

[4] = molecular target: T1, human PSGL-1 (extracellular domain) …; experiment: ELISA, plate coated with recombinant PSGL-1 at lower density (0.05 pg/mL as printed), FIG. 3B
Description: as §1

Chain of 15A7H-IgM (chain): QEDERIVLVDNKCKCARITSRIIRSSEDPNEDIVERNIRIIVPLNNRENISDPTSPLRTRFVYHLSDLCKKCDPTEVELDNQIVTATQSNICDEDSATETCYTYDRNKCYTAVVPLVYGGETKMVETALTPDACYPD

Binder | EC50 [1] | EC50 (nM) of apoptosis of activated T cells, Donor 1 [2] | EC50 (nM) of apoptosis of activated T cells, Donor 2 [2] | EC50 (nM) of apoptosis of activated T cells, Donor 3 [2] | EC50 (µg/mL) of apoptosis of activated T cells, Donor 1 [2] | EC50 (µg/mL) of apoptosis of activated T cells, Donor 2 [2] | EC50 (µg/mL) of apoptosis of activated T cells, Donor 3 [2] | EC50 [3] | EC50 [4]
15A7H-IgM (antibody, also called 15A7H-IgM antibody; pentameric 15A7H-IgM) heavy: EVQLVESGGGLVQPGGSLRLSCAASGFTFSSFGMHWVRQAPGKGLEWVAYINGGSSTIFYANAVKGRFTISRDNAKNTLYLQMNSLRAEDTAVYYCARYASYGGGAMDYWGQGTLVTVSSGSASAPTLFPLVSCENSPSDTSSVAVGCLAQDFLPDSITFSWKYKNNSDISSTRGFPSVLRGGKYAATSQVLLPSKDVMQGTDEHVVCKVQHPNGNKEKNVPLPVIAELPPKVSVFVPPRDGFFGNPRKSKLICQATGFSPRQIQVSWLREGKQVGSGVTTDQVQAEAKESGPTTYKVTSTLTIKESDWLSQSMFTCRVDHRGLTFQQNASSMCVPDQDTAIRVFAIPPSFASIFLTKSTKLTCLVTDLTTYDSVTISWTRQNGEAVKTHTNISESHPNATFSAVGEASICEDDWNSGERFTCTVTHTDLPSPLKQTISRPKGVALHRPDVYLLPPAREQLNLRESATITCLVTGFSPADVFVQWMQRGQPLSPEKYVTSAPMPEPQAPGRYFAHSILTVSEEEWNTGETYTCVVAHEALPNRVTERTVDKSTGKPTLYNVSLVMSDTAGTCY light: DIQMTQSPSSLSASVGDRVTITCRSSQSIVHNDGNTYFEWYQQKPGKAPKLLIYKVSNRFSGVPSRFSGSGSGTHFTLTISSLQPEDFATYYCFQGSYVPLTFGQGTKVEIKRTVAAPSVFIFPPSDEQLKSGTASVVCLLNNFYPREAKVQWKVDNALQSGNSQESVTEQDSKDSTYSLSSTLTLSKADYEKHKVYACEVTHQGLSSPVTKSFNRGEC not shown | 0.0396 nM | 0.0177 nM | 0.0152 nM | 0.0096 nM | 0.0156 µg/mL | 0.0134 µg/mL | 0.00844 µg/mL | 0.0926 nM | 0.0459 nM
15A7H-IgG4 (antibody, V domains shown, Bivalent IgG4 antibody described in WO 2012/174001; In some functional assays it was used with a mouse anti-human IgG Fc-gamma cross-linker (CL); also called anti-PSGL-1 bivalent mAb 15A7H; 15A7H-IgG4 + CL (when used with cross-linker)) VH: EVQLVESGGGLVQPGGSLRLSCAASGFTFSSFGMHWVRQAPGKGLEWVAYINGGSSTIFYANAVKGRFTISRDNAKNTLYLQMNSLRAEDTAVYYCARYASYGGGAMDYWGQGTLVTVSS VL: DIQMTQSPSSLSASVGDRVTITCRSSQSIVHNDGNTYFEWYQQKPGKAPKLLIYKVSNRFSGVPSRFSGSGSGTHFTLTISSLQPEDFATYYCFQGSYVPLTFGQGTKVEIKR | 0.12 nM | – | – | – | – | – | – | 0.141 nM | 0.0974 nM
